From publication PMC5571939 come the findings set out here.

The target in assay [1] is HL-Munc18c (mouse) (UniProt Q60770). The assay is described as follows: BLI; HL-Munc18c immobilised on Ni-NTA biosensors; de-tagged Sx4 constructs 25–400 nM in solution; BLItz; 1:1 fit. On the technique in general: Biolayer interferometry detects binding as a change in optical thickness at a sensor tip.
The target of assay [2] is Alexa488-labeled VAMP2 E78C (GST-cleaved) (rat) (UniProt P63045). The assay is described as follows: fluorescence polarisation; SNARE complex formation by fluorescence anisotropy, all in solution: 700 nM SNAP23, 100 nM Alexa488-labeled VAMP2, 700 nM Sx4 variant, no Munc18c; 25°C; 25 mM HEPES pH 8.0, 200 mM NaCl, 1 mM TCEP, 2% glycerol.
The target is the same in assay [3]. The experiment in a line: fluorescence polarisation; SNARE complex formation by fluorescence anisotropy, all in solution: 700 nM SNAP23, 100 nM Alexa488-labeled VAMP2, 700 nM Sx4 variant, in the presence of 500 nM HMunc18c; 25°C; 25 mM HEPES pH 8.0, 200 mM NaCl, 1 mM TCEP, 2% glycerol. For orientation: Polarisation of emitted light reports the rotation of a fluorescent probe.

Chain of Alexa488-labeled VAMP2 E78C (GST-cleaved) (rat) (P63045 1-96 E78C): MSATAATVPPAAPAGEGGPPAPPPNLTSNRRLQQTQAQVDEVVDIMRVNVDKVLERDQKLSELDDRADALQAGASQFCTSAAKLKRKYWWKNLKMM
Chain of HL-Munc18c (mouse) (Q60770 whole entry): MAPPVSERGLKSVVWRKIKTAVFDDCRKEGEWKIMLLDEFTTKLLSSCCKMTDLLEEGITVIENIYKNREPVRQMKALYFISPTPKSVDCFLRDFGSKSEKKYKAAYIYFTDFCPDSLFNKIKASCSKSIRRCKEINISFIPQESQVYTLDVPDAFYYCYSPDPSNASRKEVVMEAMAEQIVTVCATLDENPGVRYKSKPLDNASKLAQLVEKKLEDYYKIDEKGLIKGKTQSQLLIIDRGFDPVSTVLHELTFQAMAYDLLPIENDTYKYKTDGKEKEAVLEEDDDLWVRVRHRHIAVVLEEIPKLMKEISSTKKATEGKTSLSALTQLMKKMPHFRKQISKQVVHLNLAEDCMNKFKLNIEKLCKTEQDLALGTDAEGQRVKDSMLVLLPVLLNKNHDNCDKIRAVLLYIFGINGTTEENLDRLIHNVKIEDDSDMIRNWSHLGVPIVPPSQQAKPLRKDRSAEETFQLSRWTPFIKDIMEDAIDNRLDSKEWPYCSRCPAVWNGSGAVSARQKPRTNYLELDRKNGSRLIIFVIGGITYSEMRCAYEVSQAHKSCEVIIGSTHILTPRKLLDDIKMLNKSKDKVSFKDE

One may read the Kd as the concentration at which binding is half-saturated. Read a high Kd as lower affinity. The term koff denotes a measure of how fast the partners let go of each other. A higher koff goes with fast dissociation. In general, kon refers to the second-order rate constant of association. Read a high kon as faster complex formation. Consider “Sx4_(1-275)-T4L (de-tagged) (from UniProt Q08850 1-275; P00720 1-164)”, for which, in assay [1], the Kd was 31 nM, the off-rate constant (koff) was determined as 0.009 s⁻¹ and the kon was 290000 M⁻¹ s⁻¹.

“Sx4_(30-275)-His (from UniProt Q08850 30-275) (domain or fragment)”: the results for the kobs of SNARE complex formation with m13 in assay [2] and in assay [3] were 0.00049 s⁻¹ and 0.00048 s⁻¹, respectively.

As to “Sx4_(30-275)-T4L-His (from UniProt Q08850 30-275; P00720 1-164)”, the kobs of SNARE complex formation with m13 in assay [2] came out at 0.00048 s⁻¹; in assay [3], 0.0005 s⁻¹.

In assay [1], “Sx4_(1-275) (de-tagged) (from UniProt Q08850 1-275) (domain or fragment)” had a Kd of 72 nM, a koff of 0.022 s⁻¹ and a kon of 300000 M⁻¹ s⁻¹.
